Results: the supplement of paper PMC10567573

B1: ACSBG2 (parent)
chain: TPMTIPEFFRESVNRFGTYPALAS

Variants of: B1
Test: protein stability index of a GFP-peptide fusion (GPS, HEK-293T) (PSI 1-6); higher = more stable
Details: c terminus: a fixed tail appended
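Note: lentivirally expressed fusions sorted by FACS into six bins by GFP to DsRed ratio, PSI derived from sequencing read proportions per bin multiplied by bin number.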

| Variant | protein stability index |
| --- | --- |
| TPMTIPEFFRESVIRFGTYPALAS [N14I] | 1.83 |
| TPMTIPEFFRESVMRFGTYPALAS [N14M] | 2.39 |
| TPMTIPEFFRESVTRFGTYPALAS [N14T] | 2.23 |
| TPMTIPEFFRESVERFGTYPALAS [N14E] | 2.81 |
| TPMTIPEFFRESVRRFGTYPALAS [N14R] | 2.01 |
| TPMTIPEFFRESVVRFGTYPALAS [N14V] | 1.93 |
| TPMTIPEFFRESVARFGTYPALAS [N14A] | 2.51 |
| TPMTIPEFFRESVDRFGTYPALAS [N14D] | 2.65 |
| TPMTIPEFFRESVLRFGTYPALAS [N14L] | 1.62 |
| TPMTIPEFFRESVHRFGTYPALAS [N14H] | 2.05 |
| TPMTIPEFFRESVPRFGTYPALAS [N14P] | 2.66 |
| TPMTIPEFFRESVYRFGTYPALAS [N14Y] | 1.88 |
| TPMTIPEFFRESVQRFGTYPALAS [N14Q] | 2.24 |
| TPMTIPEFFRESVGRFGTYPALAS [N14G] | 2.18 |
| TPMTIPEFFRESVSRFGTYPALAS [N14S] | 2.51 |
| TPMTIPEFFRESVWRFGTYPALAS [N14W] | 1.74 |
| TPMTIPEFFRESVCRFGTYPALAS [N14C] | 1.83 |
| TPMTIPEFFRESVKRFGTYPALAS [N14K] | 2.54 |
| TPMTIPEFFRESVFRFGTYPALAS [N14F] | 1.66 |
| TPMTIPEWFRESVNRFGTYPALAS [F8W] | 2.09 |
| TPMTIPEYFRESVNRFGTYPALAS [F8Y] | 2.4 |
| TPMTIPEVFRESVNRFGTYPALAS [F8V] | 2.14 |
| TPMTIPEFFRESVNRRGTYPALAS [F16R] | 2.86 |
| TPMTIPEFFRESVNRHGTYPALAS [F16H] | 3.03 |

| Variant | protein stability index |
| --- | --- |
| TPMTIPEFFRESVNRVGTYPALAS [F16V] | 2.64 |
| TPMTIPEFFRESVNRLGTYPALAS [F16L] | 2.11 |
| TPMTIPEFFRESVNRGGTYPALAS [F16G] | 2.48 |
| TPMTIPEFFRESVNREGTYPALAS [F16E] | 3.37 |
| TPMTIPEFFRESVNRMGTYPALAS [F16M] | 3.39 |
| TPMTIPEFFRESVNRDGTYPALAS [F16D] | 3.62 |
| TPMTIPEFFRESVNRWGTYPALAS [F16W] | 2.16 |
| TPMTIPEFFRESVNRIGTYPALAS [F16I] | 2.36 |
| TPMTIPEFFRESVNRSGTYPALAS [F16S] | 2.71 |
| TPMTIPEFFRESVNRPGTYPALAS [F16P] | 2.92 |
| TPMTIPEFFRESVNRAGTYPALAS [F16A] | 3.51 |
| TPMTIPEFFRESVNRCGTYPALAS [F16C] | 2.54 |
| TPMTIPEFFRESVNRQGTYPALAS [F16Q] | 2.8 |
| TPMTIPEFFRESVNRNGTYPALAS [F16N] | 3.41 |
| TPMTIPEFFRESVNRKGTYPALAS [F16K] | 3.22 |
| TPMTIPEFFRESVNRYGTYPALAS [F16Y] | 2.22 |
| TPMTIPEFFRESVNRTGTYPALAS [F16T] | 2.87 |
| TPMTIPEFFRASVNRFGTYPALAS [E11A] | 1.95 |
| TPMTIPEFFRLSVNRFGTYPALAS [E11L] | 1.48 |
| TPMTIPEFFRHSVNRFGTYPALAS [E11H] | 1.84 |
| TPMTIPEFFRVSVNRFGTYPALAS [E11V] | 1.99 |
| TPMTIPEFFRRSVNRFGTYPALAS [E11R] | 1.99 |
| TPMTIPEFFRYSVNRFGTYPALAS [E11Y] | 1.68 |
| TPMTIPEFFRCSVNRFGTYPALAS [E11C] | 1.95 |

| Variant | protein stability index |
| --- | --- |
| TPMTIPEFFRSSVNRFGTYPALAS [E11S] | 2.15 |
| TPMTIPEFFRFSVNRFGTYPALAS [E11F] | 2.47 |
| TPMTIPEFFRTSVNRFGTYPALAS [E11T] | 2.17 |
| TPMTIPEFFRQSVNRFGTYPALAS [E11Q] | 1.5 |
| TPMTIPEFFRNSVNRFGTYPALAS [E11N] | 1.82 |
| TPMTIPEFFRKSVNRFGTYPALAS [E11K] | 2.09 |
| TPMTIPEFFRWSVNRFGTYPALAS [E11W] | 2.08 |
| TPMTIPEFFRPSVNRFGTYPALAS [E11P] | 1.72 |
| TPMTIPEFFRISVNRFGTYPALAS [E11I] | 1.69 |
| TPMTIPEFFRMSVNRFGTYPALAS [E11M] | 2.76 |
| TPMTIPEFFRGSVNRFGTYPALAS [E11G] | 1.89 |
| TPMTIPEFFRDSVNRFGTYPALAS [E11D] | 2.58 |
| TPMTIPEFFIESVNRFGTYPALAS [R10I] | 1.51 |
| TPMTIPEFFPESVNRFGTYPALAS [R10P] | 3.03 |
| TPMTIPEFFAESVNRFGTYPALAS [R10A] | 2.61 |
| TPMTIPEFFTESVNRFGTYPALAS [R10T] | 2.37 |
| TPMTIPEFFWESVNRFGTYPALAS [R10W] | 1.97 |
| TPMTIPEFFQESVNRFGTYPALAS [R10Q] | 2.62 |
| TPMTIPEFFLESVNRFGTYPALAS [R10L] | 1.45 |
| TPMTIPEFFDESVNRFGTYPALAS [R10D] | 2.75 |
| TPMTIPEFFNESVNRFGTYPALAS [R10N] | 3.3 |
| TPMTIPEFFGESVNRFGTYPALAS [R10G] | 2.37 |
| TPMTIPEFFCESVNRFGTYPALAS [R10C] | 1.5 |
| TPMTIPEFFFESVNRFGTYPALAS [R10F] | 2.04 |

| Variant | protein stability index |
| --- | --- |
| TPMTIPEFFEESVNRFGTYPALAS [R10E] | 2.43 |
| TPMTIPEFFSESVNRFGTYPALAS [R10S] | 2.45 |
| TPMTIPEFFHESVNRFGTYPALAS [R10H] | 2.15 |
| TPMTIPEFFKESVNRFGTYPALAS [R10K] | 2.55 |
| TPMTIPEFFVESVNRFGTYPALAS [R10V] | 1.54 |
| TPMTIPEFFMESVNRFGTYPALAS [R10M] | 1.63 |
| TPMTIPEFFYESVNRFGTYPALAS [R10Y] | 1.86 |
| TPMTIPEFCRESVNRFGTYPALAS [F9C] | 2.17 |
| TPMTIPEFIRESVNRFGTYPALAS [F9I] | 2.27 |
| TPMTIPEFQRESVNRFGTYPALAS [F9Q] | 2.37 |
| TPMTIPEFVRESVNRFGTYPALAS [F9V] | 2.36 |
| TPMTIPEFNRESVNRFGTYPALAS [F9N] | 3.16 |
| TPMTIPEFARESVNRFGTYPALAS [F9A] | 2.42 |
| TPMTIPEFGRESVNRFGTYPALAS [F9G] | 3.05 |
| TPMTIPEFSRESVNRFGTYPALAS [F9S] | 2.71 |
| TPMTIPEFYRESVNRFGTYPALAS [F9Y] | 2.71 |
| TPMTIPEFKRESVNRFGTYPALAS [F9K] | 2.67 |
| TPMTIPEFPRESVNRFGTYPALAS [F9P] | 2.79 |
| TPMTIPEFDRESVNRFGTYPALAS [F9D] | 3.36 |
| TPMTIPEFWRESVNRFGTYPALAS [F9W] | 1.92 |
| TPMTIPEFTRESVNRFGTYPALAS [F9T] | 3.4 |
| TPMTIPEFERESVNRFGTYPALAS [F9E] | 3.41 |
